In the DeepSol protein solubility set:

Assay: soluble on expression in E. coli; label from the status in PepcDB or PDB records

Sequence	soluble on expression in E. coli
MAHHHHHHMGCGGSKPNAVSRDVEEKALYLRGIKESIDKAEGNMLATLHALQALMRSYESTSYSFVELAHGTDGNTSLKAKTFESDMRTLKDSGIMPKLQKDLGQSVSSLGKDIRAKHDKANVVYREMTQANDAYCKLRERVNGIEKSYAKKNKPVSECPSYTKNCKERDVCLARYEGLKKVFLTLVEELRTLIRSYVTAGLTRYAFSTADYAQQLVNSLQKYKSE	soluble
MAHTTGENLFTMKRVLRNLEADHDALREALADGRRMRDLLPYGDYINRYRNLTRDPMVVAIHKQFHESGLGGLTIDESMFPLSLRFEDDDVTLVFRRPEGFRHGTNEESSQRPLIERRSRIVLFWKYAEPGTDALKRISLQMFDNEGPLEEATMLSEKIPLLTKPESLTTAMFIPTHADEPRFVFGS	not soluble
EVKLQESGPSLVKPSQTLSLTCSVTGDSITSDFWSWIRQFPGNRLEYMGFVQYSGETAYNPSLKSRISITRDTSKNQYYLDLNSVTTEDTAVYYCANWHGDYWGQGTTVTVSSAKTTPPSVYPLAPGSAAQTNSMVTLGCLVKGYFPEPVTVTWNSGSLSSGVHTFPAVLQSDLYTLSSSVTVPSSTWPSETVTCNVAHPASSTKVDKKIVPRDCHHHHHH	soluble
MAHHHHHHMCPPKNENERGTEGQPAKNTESADTLKRKLSELYAEEGCQYGENGQPEDTSHLVSSGSAGKKRETATEKRNPEEVREKENAHEKKEDNEVDQNGQTSTSKTNTKKHRSSTDEPPNRRKKKKRKKKFNDNGEVTKPSKQMIRINYLLQASFLMNELNPNISREYIKTMRKLSNKFLIKHDKKFKKLFCKKCNSVLIPSATCKVSVNPLNLRKKKKNKNEEVSSNLNGKLRDEFLVSYRCNYCQHDTKFVYENGLTAPRANGTEAV	soluble
MRRVEKVIIVEGRSDKQKVAAVLNEPVVIVCTNGTISDARLEELADELEGYDVYLLADADEAGEKLRRQFRRMFPEAEHLYIDRAYREVAAAPIWHLAQVLLRARFDVRIESLMRGRGE	soluble
RHLCESRQQAQRWIRAGAVHVNHIPIDKPGTLVAVDATIQVKAKPAYVSRGGEKLAHALGVFPVVVRDRVCLDGGISTGGFTDCLLQAGAQLVYGIDVGYGQVDWKLRQDPRLILRERTNLRYLTPADLYTDDGPRPDLGVVDVSFISLTKVLPALWELLLPPRELIALIKPQFEVGRDRLGKNGVVRDAKARQEAVDQVITAAAALGWQCYGVTPSPILGPAGNQEFLAHFCCGANGVLENEMVS	not soluble
MTATASDDEAVTALALSAAKGNGRALEAFIKATQQDVWRFVAYLSDVGSADDLTQETFLRAIGAIPRFSARSSARTWLLAIARHVVADHIRHVRSRPRTTRGARPEHLIDGD	soluble
PADFNGTWEMLSNDNFEDVMKALDIDFATRKIAVHLKQTKVIVQNGDKFETKTLSTFRNYEVNFVIGEEFDEQTKGLDNRTVKTLVKWDGDKLVCVQKGEKENRGWKQWIEGDLLHLEIHCQDKVCHQVFKKKN	soluble
MGSDKIHHHHHHMLSKMEINKLAMKESMTLLACPICGGEFSFSEPNSFICKNHHGFDIAKPGYLHLLKQVHKTKYDQALFESRKKVIASGFFEKLIERVTEIIAETKKEEVVIYDAGSGEGSHLARVVKNLQEKGRHVQAIGLDIAKEGVKQAARDYPGIVWTVADLANCPTQTETADVILNILSPSNYEEFKRLLKTDGFLLKVVPEANYLRELREFIYVDEKSSYSNESVTSRLAEKLTVEYVERVTYKAPIANELFADFLEMTPLGWHIDKDKKSELLINPPKELTVDLKIIIANRAHLL	not soluble
MSSSDHIHVPDGLAESYSRSGGEEGRAWIAGLPALVARCVDRWELKRDGGVRSGEASLVVPVLRADGTRAALKLQMPREETTAALIGLRAWGGDGMVRLLDHDEESSTMLLERLDGSRTLASVEDDDEAMGVLAGLLNRLHSVPAPPGLRGLGEIAGAMVEEVPSAVDSLADPEDRSRLRGWASAVAELVGEPGDRVLHWDLHYENVLAAEREPWLAIDPEPLVGDPGFDLWPALDTGWERIEATGDARRVVRRRFDLLTEALELDRGRAAGWTLARLLQNTLWDIEDGLTAIAPSQIAVAEALAKP	not soluble
MAHHHHHHMAADKDTPDSLGHSQTMAAEGTKGVATEQQPQASPSSSSAAAAATSMSVAETTATDATTAAASRKAPAPHDKAVAVNEGSTARVAAASSSSSTASSSASVDEQRRRRLALYGSRAMAAGGKKGPALAADPHHPSTPHGSAHGRHALTAFGARRGGELAFYIQQGGDLTSQGRYLVIGDGLMAPFMALCLRVHGLECDLAHHPSQNDLDRGTVVLTPSVTQLMGDVLNVSVPSGSVVGRVLTFDHVGNDMCDVDLNEFREKGESPTFFCCDRLKVESALMSLCRIGAHSCMVLPKPQIDKGGLEPLESGGVRVRFTSGLQQDYLGVICTARNQELVPELTITNEELQARAENAEKYRDTFSKSVRWMELCVPPLPELGKFEKRFTPGSQEIVEILTPRDAKMTVRPTMMATKLFYNVTLTIPDGTADPRLKSTSTKLFWDDVVMHWTSGVPGYISHTMFRPMFTHLQQNFTKSSALVYRTPLFLMPHWSEGGGRVIKVAHAAHGSCFDAVDVSDAQGFTDCFTLARTIAGGEDVAAFLKERRLQVMEEMDHHSRLTYYGLKERGQMAYMMSRFNMKIMRKYKKSWRSILQNYVTLMPKSIPR	soluble
MGSDKIHHHHHHVVAEAVNLQFDYSRYGFRQEERYVYKAPKGLNERIVRELSGMKGEPEWMLKRRLRALEIFNKKPTPLVGTWANPELAELNYDDIHYFVRANERPQTDWDAVPPEIKNTFERLGIPEAERKFLAGVGAQYESEVVYHSLREEWAKQGVIFLDTDTALKEYPEFFKEYFGTIVPAADNKYAALNTAVWSGGSFVYVPKGVKVDIPLQAYFRINAERMGQFERTLIIIDEGAEAHYIEGCTAPIYSTNSLHSAVVEVIVKKGGKFRYTTIQNWANNIFNLVTKRAVAYEEASMEWVDGNIGSKLTMKYPSVYLMGRKARGEVLSVAYAGRGQHQDAGAKMIHLAPETTSRITNKSVSKDGGKTTYRGLAKVAPGAYGAKINVNCDALILDEHSASDTIPYIEIEEDRCTLAHEATVGRIGAEQLFYLMSRGISESDALSMIVLGFMEPFTRELPMEYAVELNRLIQLEMEGSVG	not soluble
MGSDKIHHHHHHMYLKVFKEDVIDGLQKAANIIPAKTGAAYLRSIWLKAEAGMVHVLSTDSNIEFRGSYKAEVTEEGLAGVQGRAFVDLIRKLPAGEITLHLDPKTGTLGIEQGRRKYTLPTNDTAWFQNFSDYPESGSVFWSGDFLQELIDKLSFCISDEDTMEAIACMSMKPRQDNAIEACGLNGHQFAMQRFLNDDIHALLPAEGILVQKKYLMELKKWLGADEIELNIDNKRLFFRTGDKRETFSLPLSYYQYPDYTSFVSKLSTPDAGALEVNRKDMMAALDRVLIFNTDNNRCTYFDLEAGEVSLSSQGQEVGSASESLEGTYDGSLKRIAFPTRNLIEIMNHYQSDSMRFTLTGTEGPCGLTGENDPDYLVIVMPMKIVEETYYSEEEV	not soluble
MASTPCAACKLLRRKCTQECVFAPYFPPTNPQKFIFVHRVFGASNVTKILNDLPPDQREDTVNSLFYEAEARIRDPIYGCVGLISFLQQYLKKIQQDLLTAKEELVGYLGPDAVIPPPYLPPIGNNPPPNFMMSMEGMPPGVIPQGEPLMIREPNMSQQHHHQQPQDEQLQFIASDAQRMAAMMLERGDQQGMFNGYGIDNNGSVTATGFNQMDVNDQGAGGSLSGPSLALGSFGDAYQMGQETEHGHINHDQLQTQLMLQPPLQEGQEQTEEGQFLMQPMGQENLHDEEEEEELEPPVKWRMSENKEASF	not soluble
MGHHHHHHSHMLDDQEAKREAETFKEQGNAYYAKKDYNEAYNYYTKAIDMCPKNASYYGNRAATLMMLGRFREALGDAQQSVRLDDSFVRGHLREGKCHLSLGNAMAACRSFQRALELDHKNAQAQQEFKNANAVMEYEKIAETDFEKRDFRKV	not soluble
MRKSRLSRYKQNKLIELFVAGVTARTATEPDSIVYTDCYRRYDVLDAGEFSHFRINHSTHFAERQNHINGIGNFWNRAKRHLRKFDGIPKEHFEPYLKECERRFLEHHHHHH	soluble
PIKVDGANINITAAIYDEIQQEMKRAKVSQALFAKVAANKSQGWLCELLRWKENPSPENRTLWENLCTIRRFLNLPQHERDVIYEEES	soluble
MAHHHHHHMGTLEAQTQGPGSMFELSDLPYEGLEPYISSHLLDRHYNGHHKTYVDVLNKLVVGTEFEGLGNESLGDIVVKAHNSGSAGRAIFNNAAQIWNHDFYWQSMKPNGGGNPPEKLREMIEHSFGSVEGFNNAFTTSGLGQFGSGWVWLVYDEDAKALKVVSTANADSPLLTQGQLPLATMDVWEHAYYLDYLNLRKKYIDVFLEHLLNWDFVLGRLEDAGVL	soluble
GSSSGGGSSSSGTSSAFSSYFNNKVGIPQEHVDHDDFDANQLLNKINE	soluble
MIGMAEVKLINIWKRFGDVTAVKDLSLEIKDGEFLVLLGPSGCGKTTTLRMIAGLEEPTRGQIYIEDNLVADPEKGVFVPPKERDVAMVFQSYALYPHMTVYDNIAFPLKLRKVPKQEIDKRVREVAEMLGLTELLNRKPRELSGGQRQRVALGRAIIRRPKVFLMDEPLSNLDAKLRVKMRAELKKLQRQLGVTTIYVTHDQVEAMTMGDRIAVMNKGELQQVGTPDEVYYKPVNTFVAGFIGSPPMNFLDATITDDGFLDFGEFKLKLLQDQFEVLEEENMVGKEVIFGIRPEDVHDASFTHIDVPEENTVKATVDIIENLGGEKIVHLRRGNISFTAKFPKESKVREGDEVSVVFDMKKIHIFRKDTEKAIF	soluble
MGRSNKHDVTSTTPSLAIVQANPHPHKDVVPTEAPIVSSYNDHIRPLLDTVDKLRNLNVMQEGIQLPTIVVVGDQSSGKSSVLESLAGISLPRGQGICTRVPLVMRLQRSRSPEPEIWLEYGDKIVPTDEEHIAQTICAATDVIAGSGKGVSDTPLTLHVKKAGVPDITMVDLPGITRVPVNGQPENIYEQISRMVMKYIEPQESIILNVLSATVDFTTCESIRMSKQVDKTGERTLAVVTKADMAPEGLLQKVTADDVSIGLGYVCVRNRIGEETYEEARMQEELLFRTHPMLSMINDEIVGIPVLAQKLTQIQGMMISRCLPEIERKINVKMEISVLEFNKLPIVMASTGEALMSLMDIIGSAKESLLRILVHGDFSEYPNDQKMHCTARLAEMLNRFSDNLQAQPQAVTEEFLMDEIKVLEERKCIGLPNFIPRSSFLAILSQHVDGIQDKPVEFIKEIWDYIEVVLSSVITTYSDNFPQIQSSIKRAGRNLMSRTKERSKTTSQQNFINSVLHDENKPENFALPGFGDVKISHLRKYHAHLLQQAFDMKMRITSYWTIVLRRVVDNLALYLQFSVKNLVNSQFQKEIVAEMVDPRAGGGIDRMLEESPSVASKREKLKNSLKLLKESKDVVAAIVDQNSVYADR	soluble
MAHHHHHHMSISIRSTAQRQLARRQPPTTSSSSVSLPRAAFAPASRSASAVEATSESASSSQVPEQQEATPTRILDNARSSSCAAAPPPFSASSDQRSDQINKCIHDTSTLTSKPPPSASSASSRGAAAPSLPPSAPSSTTGAPRSGHDAEPEGLHDAASSTAAPSGAGSSAVANSQRTAASHSLLYSVSRFTEPVKRIILIRNGRSEANEDVRAYVQTPDWRIPLVEEGKREAIAAGRALSELIGDGPVYFYYSPYIRSRQSLRYVLQGFDEARLSGLSHSREWWEDEETAAVASAAAAAESSTLKCATASADEAGSPPLLAPAPSAISTNATSSDAQCCFHRDPSLVLNRGTSNNIIGVREDVRLRDGDIGRYTSADELMHHLVERERYGRFFYRFPFGESGADVCDRVTSFLDAFQRERVEFPMDTSVVIITHGLTMRMLIKRWFYLTVETFHKMKSPPPGSLCTLTRLHHRSCFRLDECCVESMNLPLSLNEFNGYKYRNKQLLGSMSSGAPYM	not soluble
